Laboratory results: US20030148956A1 (PROCTER AND GAMBLE, published 2003)
Values belong to the binder of their own block, whether it stands above or below them. Ends that are not written are not given here.

Columns and labels:
CRF2R = molecular target: T1, CRF2R; test: cell-based or functional assay
T1 sequence (Q13324 whole entry, species assumed, looked up): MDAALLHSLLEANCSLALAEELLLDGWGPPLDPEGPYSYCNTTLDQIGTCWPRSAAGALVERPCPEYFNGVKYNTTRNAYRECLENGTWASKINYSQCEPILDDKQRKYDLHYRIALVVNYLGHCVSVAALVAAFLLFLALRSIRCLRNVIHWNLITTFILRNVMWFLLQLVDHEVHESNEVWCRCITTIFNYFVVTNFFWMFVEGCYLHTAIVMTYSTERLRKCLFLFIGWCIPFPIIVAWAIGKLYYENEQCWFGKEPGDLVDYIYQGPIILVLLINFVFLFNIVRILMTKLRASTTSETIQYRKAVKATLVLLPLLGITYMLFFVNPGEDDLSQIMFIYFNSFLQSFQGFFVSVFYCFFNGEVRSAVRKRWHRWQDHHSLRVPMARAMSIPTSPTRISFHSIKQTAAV

CRF1R = test: cell-based or functional assay

CRF2R EC50 (CRF2R): 100 nM | CRF2R Emax (CRF2R): 13.5% | CRF1R EC50 (CRF1R): 100 nM | CRF1R Emax (CRF1R): 7.8%
B4: SEQ ID NO 102 (peptide)
peptide: SQEPPISLDLPLHLLREVLEMTKADQLAQQAHSNRKLLDIA-NH2

CRF2R EC50 (CRF2R): 100 nM | CRF2R Emax (CRF2R): 9.85% | CRF1R EC50 (CRF1R): 100 nM | CRF1R Emax (CRF1R): 6.25%
B5: SEQ ID NO 100 (peptide)
peptide: SQEPPISLDLPIQLLREVLEMTKADQLAQQAHSNRKLLDIA-NH2

CRF2R EC50 (CRF2R): 100 nM | CRF2R Emax (CRF2R): 5.5% | CRF1R EC50 (CRF1R): 100 nM | CRF1R Emax (CRF1R): 4%
B7: SEQ ID NO 98 (peptide)
peptide: SQEPPISLDLPTGLLREVLEMTKADQLAQQAHSNRKLLDIA-NH2

CRF2R EC50 (CRF2R): 100 nM | CRF2R Emax (CRF2R): 4.35% | CRF1R EC50 (CRF1R): 100 nM | CRF1R Emax (CRF1R): 4.35%
B11: SEQ ID NO 99 (peptide)
peptide: SQEPPISLDLPTHLLREVLEMTKADQLAQQAHSNRKLLDIA-NH2

CRF2R EC50 (CRF2R): 100 nM | CRF2R Emax (CRF2R): 6.95% | CRF1R EC50 (CRF1R): 100 nM | CRF1R Emax (CRF1R): 7.35%
B12: SEQ ID NO 101 (peptide)
peptide: SQEPPISLDLPLYLLREVLEMTKADQLAQQAHSNRKLLDIA-NH2

CRF2R EC50 (CRF2R): 100 nM | CRF2R Emax (CRF2R): 4.85% | CRF1R EC50 (CRF1R): 100 nM | CRF1R Emax (CRF1R): 5.75%
B13: SEQ ID NO 103 (peptide)
peptide: SQEPPISLDLPFGLLREVLEMTKADQLAQQAHSNRKLLDIA-NH2

The remaining lines, values behind:

B1: SEQ ID NO 94 (peptide)
peptide: SQEPPISLDLPIHLLREVLEMTKADQLAQQAHSNRKLLDIA-NH2
CRF2R EC50 (CRF2R): 100 nM | CRF2R Emax (CRF2R): 6.15% | CRF1R EC50 (CRF1R): 100 nM | CRF1R Emax (CRF1R): 7.3%

B2: SEQ ID NO 7 (peptide)
peptide: SQEIVLSLDVPIGLLREVLEMTKADQLAQQAHSNRKLLDIA-NH2
CRF2R EC50 (CRF2R): 100 nM | CRF2R Emax (CRF2R): 19% | CRF1R EC50 (CRF1R): 100 nM | CRF1R Emax (CRF1R): 4%

B3: SEQ ID NO 93 (peptide)
peptide: SQEPPISLDLPIGLLREVLEMTKADQLAQQAHSNRKLLDIA-NH2
CRF2R EC50 (CRF2R): 100 nM | CRF2R Emax (CRF2R): 6.4% | CRF1R EC50 (CRF1R): 100 nM | CRF1R Emax (CRF1R): 5%

B6: SEQ ID NO 91 (peptide)
peptide: SQEPPISLDLPFQLLREVLEMTKADQLAQQAHSNRKLLDIA-NH2
CRF2R EC50 (CRF2R): 100 nM | CRF2R Emax (CRF2R): 7.1% | CRF1R EC50 (CRF1R): 100 nM | CRF1R Emax (CRF1R): 4%

B8: SEQ ID NO 97 (peptide)
peptide: SQEPPISLDLPFELLREVLEMTKADQLAQQAHSNRKLLDIA-NH2
CRF2R EC50 (CRF2R): 100 nM | CRF2R Emax (CRF2R): 7.6% | CRF1R EC50 (CRF1R): 100 nM | CRF1R Emax (CRF1R): 4.25%

B9: SEQ ID NO 96 (peptide)
peptide: SQEPPISLDLPFYLLREVLEMTKADQLAQQAHSNRKLLDIA-NH2
CRF2R EC50 (CRF2R): 100 nM | CRF2R Emax (CRF2R): 12.5% | CRF1R EC50 (CRF1R): 100 nM | CRF1R Emax (CRF1R): 16.3%

B10: SEQ ID NO 95 (peptide)
peptide: SQEPPISLDLPLQLLREVLEMTKADQLAQQAHSNRKLLDIA-NH2
CRF2R EC50 (CRF2R): 100 nM | CRF2R Emax (CRF2R): 8.25% | CRF1R EC50 (CRF1R): 100 nM | CRF1R Emax (CRF1R): 5.55%

B14: SEQ ID NO 92 (peptide)
peptide: SQEPPISLDLPTELLREVLEMTKADQLAQQAHSNRKIIDIA-NH2
CRF2R EC50 (CRF2R): 100 nM | CRF2R Emax (CRF2R): 15.8% | CRF1R EC50 (CRF1R): 100 nM | CRF1R Emax (CRF1R): 4.6%

B15: SEQ ID NO 90 (peptide)
peptide: SQEPPISLDLPLGLLREVLEMTKADQLAQQAHSNRKLLDIA-NH2
CRF2R EC50 (CRF2R): 100 nM | CRF2R Emax (CRF2R): 12.2% | CRF1R EC50 (CRF1R): 100 nM | CRF1R Emax (CRF1R): 4%
